Test results published in publication PMC5964521 (Infection and Immunity, 2018).

Experiments:
Assay in all cases: ELISA
Conditions in all cases: both partners purified
[1] = biological target: pertussis toxin (PTx) holotoxin, native (Bordetella pertussis, strain  …, UniProt P04977;P04978;P04979;P0A3R5;P04981)
PTx B oligomer [2] = biological target: T1, PTx B oligomer (Bordetella pertussis, strain  …, UniProt P04978;P04979;P0A3R5;P04981)
[3] = biological target: pertussis toxin (native PTx holotoxin) (Bordetella pertussis, strain  …, UniProt P04977;P04978;P04979;P0A3R5;P04981)
PTx B oligomer [4] = biological target: T1, PTx B oligomer; remark: listed apart in the source
[5] = biological target: PTx S1-220 (soluble, truncated recombinant S1 subunit) (Bordetella pertussis, strain  …, UniProt P04977)

Binder	EC50 [1] [nM]	EC50 [3] [nM]	binding result (PTx B oligomer [4])	other results
biotinylated antibody H5, recombinant human IgG1 (antibody, V domains shown) VH: QVQLVESGPGLVKPSETLSLTCTVSGASVSSGTYYWSWIRQPPGKGLEWIGYSYYTGSSDSNASLKSRVTLSIDTSRNLLSLKLTSVTAADTAVYYCARDRRKVRGVWAGYSGMDVWGPGTTVTVSS VL: EIVMTQSPSSLSASVGDRVTITCQASQEITNYLNWYQQKPGKAPKLLIYDASHLETGVPSRFSGSGSGTDFSFTISSLQPEDIATYYCQQYDDFPWGGVTFGGGTKVEIK	0.06			
antibody H5 (antibody, V domains shown) VH: QVQLVESGPGLVKPSETLSLTCTVSGASVSSGTYYWSWIRQPPGKGLEWIGYSYYTGSSDSNASLKSRVTLSIDTSRNLLSLKLTSVTAADTAVYYCARDRRKVRGVWAGYSGMDVWGPGTTVTVSS VL: EIVMTQSPSSLSASVGDRVTITCQASQEITNYLNWYQQKPGKAPKLLIYDASHLETGVPSRFSGSGSGTDFSFTISSLQPEDIATYYCQQYDDFPWGGVTFGGGTKVEIK		0.02		EC50 (PTx B oligomer [2]): 0.11 nM
biotinylated antibody A12, recombinant human IgG1 (antibody, V domains shown) VH: QVTLKESGGGLVKPGGSLRLSCAASGFTFTDYYMTWIRQAPGKGLEWVSCVGSSGTYTNYAQNVQGRFTISRDNAKNSLYLQMNSLRTEDTAVYYCARVTGSGNFYGSYHYYYMDVWGKGTMVTVSS VL: EVVLTQSPATLSLSPGKKATLSCRASQSVSNYLAWYQQKPGQSPRLLIFDASKRAAGIPARFSGSGSGTDFTLTISSLEPEDFAVYYCQQRTNWLTFGGGTKVEIK	0.24			
antibody A12 (antibody, V domains shown) VH: QVTLKESGGGLVKPGGSLRLSCAASGFTFTDYYMTWIRQAPGKGLEWVSCVGSSGTYTNYAQNVQGRFTISRDNAKNSLYLQMNSLRTEDTAVYYCARVTGSGNFYGSYHYYYMDVWGKGTMVTVSS VL: EVVLTQSPATLSLSPGKKATLSCRASQSVSNYLAWYQQKPGQSPRLLIFDASKRAAGIPARFSGSGSGTDFTLTISSLEPEDFAVYYCQQRTNWLTFGGGTKVEIK		0.1	no binding	
biotinylated antibody E12, recombinant human IgG1 (antibody, V domains shown) VH: EVQLVESGGDLVQPGGSLRLSCEASGFTFSNYAMSWVRQAPGKGLEWVSGTSGSGGSTYYADSVKGRFTLSRDNSKNTLYLQMNSLRAEDTAVYYCAKDREVLRFFLLPYYFDSWGQGTLVTVSS VL: DIVMTQSPGSLSLSPGERATLSCRASQSVSSDYVAWYQQKPGQAPRLLIFDASTRATGIPDRFSGSGSGTDFTLTIGRLEPEDFAVYYCQQYGNSPLTFGGGAKVEIK	0.56			
antibody E12 (antibody, V domains shown) VH: EVQLVESGGDLVQPGGSLRLSCEASGFTFSNYAMSWVRQAPGKGLEWVSGTSGSGGSTYYADSVKGRFTLSRDNSKNTLYLQMNSLRAEDTAVYYCAKDREVLRFFLLPYYFDSWGQGTLVTVSS VL: DIVMTQSPGSLSLSPGERATLSCRASQSVSSDYVAWYQQKPGQAPRLLIFDASTRATGIPDRFSGSGSGTDFTLTIGRLEPEDFAVYYCQQYGNSPLTFGGGAKVEIK		0.13	no binding	EC50 [5]: 0.05 nM
biotinylated antibody D8, recombinant human IgG1 (antibody, V domains shown) VH: QITLRESGAEVTKPGSSVKVSCKASGGTFGSYGIRWVRQAPGQGLEWMGGIIPMFGTANYAQRFQGRVTITADKSTSTAYMELSSLKSEDTAVYYCARENSIVGANWFDPWGQGTLVTVSS VL: EIVMTQSPSSLSASVGDRVTFTCRASQSISTYLNWYQQKPGKAPTLLIYAASTLRSGVPSRFSGSGSGTDFTLTISSLQPVDFATYFCQQSYSSPYTFGQGTTLEIK	0.76			
antibody D8 (antibody, V domains shown) VH: QITLRESGAEVTKPGSSVKVSCKASGGTFGSYGIRWVRQAPGQGLEWMGGIIPMFGTANYAQRFQGRVTITADKSTSTAYMELSSLKSEDTAVYYCARENSIVGANWFDPWGQGTLVTVSS VL: EIVMTQSPSSLSASVGDRVTFTCRASQSISTYLNWYQQKPGKAPTLLIYAASTLRSGVPSRFSGSGSGTDFTLTISSLQPVDFATYFCQQSYSSPYTFGQGTTLEIK		0.14		EC50 (PTx B oligomer [2]): 0.78 nM
biotinylated antibody A8, recombinant human IgG1 (antibody, V domains shown) VH: QVQLVESGAEVKKPGASVKVSCKTSGYTFSSYGITWVRQAPGQGLEWMGWISAYNGDTNYADSVKGRVTMTTDTSTSTAYMELRSLRFDDTAVYYCARDTSFAPSGYGFDISGQGTTVTVSS VL: DIQLTQSPSSLSASVGDRVTITCRASQGIRHELAWYQQKPGKAPQRLIYAASSLQSGVPSRFSGSGSGTDFTLTINSLQPEDSATYYCLQVNSYPRTFGQGTRVDIK	0.65			
antibody A8 (antibody, V domains shown) VH: QVQLVESGAEVKKPGASVKVSCKTSGYTFSSYGITWVRQAPGQGLEWMGWISAYNGDTNYADSVKGRVTMTTDTSTSTAYMELRSLRFDDTAVYYCARDTSFAPSGYGFDISGQGTTVTVSS VL: DIQLTQSPSSLSASVGDRVTITCRASQGIRHELAWYQQKPGKAPQRLIYAASSLQSGVPSRFSGSGSGTDFTLTINSLQPEDSATYYCLQVNSYPRTFGQGTRVDIK		0.15	no binding	EC50 [5]: 0.02 nM
